According to US20210363269A1 (ALX ONCOLOGY, published 2021):

T1: cynomolgus SIRP-α D1 domain (cyno2) (cynomolgus monkey, UniProt Q5TFQ8 30-148 (human entry), limits assumed)
T1 chain: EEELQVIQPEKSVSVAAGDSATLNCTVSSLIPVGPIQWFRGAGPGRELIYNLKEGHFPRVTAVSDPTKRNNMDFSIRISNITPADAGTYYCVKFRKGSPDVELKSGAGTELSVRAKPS

T2: C57BL/6 mouse SIRP-α D1 domain (mouse (C57BL/6 strain), UniProt P97797 32-148)
T2 sequence: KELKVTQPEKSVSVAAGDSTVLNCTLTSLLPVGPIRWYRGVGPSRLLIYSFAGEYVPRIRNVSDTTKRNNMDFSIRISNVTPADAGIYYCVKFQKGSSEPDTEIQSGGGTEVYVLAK

T3: mouse 129 SIRP-α D1 domain (mouse (129 strain), UniProt P97797 32-150)
T3 construct: also called m129
T3 chain: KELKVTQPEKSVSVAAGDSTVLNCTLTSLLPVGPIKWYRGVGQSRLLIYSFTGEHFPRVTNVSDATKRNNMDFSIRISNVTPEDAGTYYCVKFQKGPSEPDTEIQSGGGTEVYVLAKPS

T4: cynomolgus SIRP-α D1 domain (cyno1) (cynomolgus monkey, UniProt Q5TFQ8 30-148 (human entry), limits assumed)
T4 chain: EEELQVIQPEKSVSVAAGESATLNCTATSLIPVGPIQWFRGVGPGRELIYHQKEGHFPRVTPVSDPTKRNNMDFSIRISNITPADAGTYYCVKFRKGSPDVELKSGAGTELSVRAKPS

T5: high affinity SIRP-α D1 variant CV1-3
T5 chain: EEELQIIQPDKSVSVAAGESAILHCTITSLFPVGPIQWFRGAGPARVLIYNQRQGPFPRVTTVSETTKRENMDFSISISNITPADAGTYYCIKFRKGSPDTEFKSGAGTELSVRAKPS

T6: cynomolgus SIRP-α D1 domain (SEQ ID NO:11) (cynomolgus, UniProt Q5TFQ8 30-148 (human entry), limits assumed)
T6 construct: also called cyno1
T6 chain: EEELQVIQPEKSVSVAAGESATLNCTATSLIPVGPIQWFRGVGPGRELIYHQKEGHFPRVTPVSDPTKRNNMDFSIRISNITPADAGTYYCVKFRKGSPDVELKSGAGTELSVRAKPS


What was measured:
[1] = molecular target: T7, human SIRP-α v1 D1 domain (human, UniProt P78324 31-149); experiment: SPR, Langmuir fit
T7 construct: also called human v1
Procedure, shortened: (§1)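 Dissociation rate constants (koff) were measured on a ProteOn XPR36 instrument by Langmuir model fitting. Antibody clones in scFv-Fc format were captured from pre-filtered culture media onto a GLC chip with about 4000 RU of amine-coupled anti-human IgG Fc. SIRP analytes ran in PBS pH 7.4 with 0.01% Tween-20 at 25° C, and the model used was 1:1, applied to data double-referenced against interspot and buffer-blank responses.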
T7 sequence (P78324 31-149 limits assumed): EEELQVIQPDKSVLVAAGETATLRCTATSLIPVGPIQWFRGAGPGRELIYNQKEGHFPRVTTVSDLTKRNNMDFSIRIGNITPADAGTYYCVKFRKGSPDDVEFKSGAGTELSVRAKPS

[2] = molecular target: T1, cynomolgus SIRP-α D1 domain (cyno2); experiment: SPR, Langmuir fit
Procedure, shortened: as §1

human SIRPβ isoform 1 [3] = molecular target: T8, human SIRPβ isoform 1 (human, UniProt O00241 30-148); experiment: SPR, Langmuir fit
T8 construct: also called SIRPb; sirpb1
T8 sequence (O00241 30-148 limits assumed): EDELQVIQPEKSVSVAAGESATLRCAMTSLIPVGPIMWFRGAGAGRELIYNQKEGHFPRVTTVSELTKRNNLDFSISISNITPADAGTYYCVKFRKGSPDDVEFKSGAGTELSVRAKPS
Procedure, shortened: as §1

[4] = molecular target: T9, human SIRP-α v2 D1 domain (human); experiment: SPR, Langmuir fit
T9 construct: also called human v2
Procedure, shortened: as §1

[5] = molecular target: T2, C57BL/6 mouse SIRP-α D1 domain; experiment: SPR
Procedure, shortened: as §1

human SIRPγ isoform 1 [6] = molecular target: T10, human SIRPγ isoform 1 (human, UniProt Q9P1W8 29-147); experiment: SPR
T10 construct: also called SIRPg; sirpg
Procedure, shortened: as §1
T10 sequence (Q9P1W8 29-147 limits assumed): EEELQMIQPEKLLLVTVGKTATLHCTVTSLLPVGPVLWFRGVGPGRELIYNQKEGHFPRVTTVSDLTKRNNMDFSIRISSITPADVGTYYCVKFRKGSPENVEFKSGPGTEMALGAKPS

[7] = molecular target: T3, mouse 129 SIRP-α D1 domain; experiment: SPR
Procedure, shortened: as §1

[8] = molecular target: T4, cynomolgus SIRP-α D1 domain (cyno1); experiment: SPR, Langmuir fit
Procedure, shortened: as §1

[9] = molecular target: T5, high affinity SIRP-α D1 variant CV1-3; experiment: SPR, Langmuir fit
Procedure, shortened: as §1

human SIRPβ isoform 1 [10] = molecular target: T8, human SIRPβ isoform 1; experiment: SPR
Procedure, shortened: as §1

[11] = molecular target: T11, human SIRP-α v2 D1 domain (human); experiment: SPR, antibody immobilised on GLC chip
T11 construct: also called human v2; human α v2
Protocol: (§2) All experiments were performed at 25° C. using a SPR-based ProteOn XPR36 biosensor (BioRad, Inc, Hercules, Calif.) equipped with GLC or NLC sensor chips. […] Purification was carried out by standard Protein A affinity column chromatography and eluted antibodies were stored in PBS buffer.
(§3) For the method using GLC chip, the analytes were injected and flowed over anti-SIRPα antibodies immobilized (˜1000 RUs) on GLC chips using Proteon™ Amine Coupling Kit. For the immobilization step, GLC chip was activated with EDAC/Sulpho-NHS 1:1 (Biorad) diluted 1/100 for 300 s at 25 μL/min. Anti-SIRPα antibodies were diluted to 80 nM concentration in 10 mM sodium acetate buffer pH 4.5 and immobilized to the chip at 30 μL/min for 50 s. Chip was inactivated with ethanolamine for 300 s at 25 μL/min. The analytes (e.g., SIRP-α from different species, SIRP-β, SIRP-γ) were injected in a “one-shot” kinetic mode at nominal concentrations of 100, 33, 11, 3.7, 1.2 and 0 nM. Association times were monitored for 90 s at 100 μL/min, and dissociation times were monitored for 1200 s. The surfaces were regenerated with a 2:1 v/v blend of Pierce IgG elution buffer/4M NaCl.
T11 sequence (chain, as listed by the source limits assumed): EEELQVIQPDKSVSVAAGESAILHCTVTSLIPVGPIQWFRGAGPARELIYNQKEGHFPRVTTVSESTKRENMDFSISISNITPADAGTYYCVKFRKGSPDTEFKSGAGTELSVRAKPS

[12] = molecular target: T12, human SIRP-α v1 D1 domain (human, UniProt P78324 31-149); experiment: SPR, antibody immobilised on GLC chip
T12 construct: also called human v1; human α v1
Protocol: as §2, §3
T12 sequence (P78324 31-149 limits assumed): as the sequence (P78324 31-149 limits assumed) above

human SIRPγ isoform 1 [13] = molecular target: T13, human SIRPγ isoform 1 (human, UniProt Q9P1W8 29-147); experiment: SPR, antibody immobilised on GLC chip
T13 construct: also called sirpg; sirp-g
Protocol: as §2, §3
T13 sequence (Q9P1W8 29-147 limits assumed): as the sequence (Q9P1W8 29-147 limits assumed) above

[14] = molecular target: T6, cynomolgus SIRP-α D1 domain (SEQ ID …); experiment: SPR, antibody immobilised on GLC chip
Protocol: as §2, §3

Binder | koff [1] [s⁻¹] | koff [2] [s⁻¹] | koff (human SIRPβ isoform 1 [3]) [s⁻¹] | koff [4] [s⁻¹] | binding result [5] | binding result (human SIRPγ isoform 1 [6]) | binding result [7] | koff [8] [s⁻¹] | koff [9] [s⁻¹] | binding result (human SIRPβ isoform 1 [10]) | Kd [11] [nM] | Kd [12] [nM] | Kd (human SIRPγ isoform 1 [13]) [nM] | Kd [14] [nM]
S149 (scFv, V domains shown, scFv-Fc format (VL-linker-VH on human IgG1 Fc)) VH: DVQLVESGGGVVRPGESLRLSCAASGFTFSNFAMNWVRQAPGEGLEWVSLISVTATTYYADSVKGRFTISRDNSKNTLYLQMNSLRAEDTAVYYCAKVTWNNLFDYWGLGTLVTVSS VL: EIVLTQSPGTLSLSPGERATLSCRASQPIDSYLAWYQQKPGQAPRLLIYNTVTRATGIPDRFSGSGSGTDFTLTINRLEPEDFAVYYCQHQYDWPPYIFGGGTKVEIK | 0.00415 | 0.00258 | 0.000331 | 0.000544 | no binding (tested: Koff > 5 × 10^3 (legend)) | no binding (tested: Koff > 5 × 10^3 (legend)) | no binding (tested: Koff > 5 × 10^3 (legend)) |  |  |  |  |  |  | 
S161 (scFv, V domains shown, scFv-Fc format (VL-linker-VH on human IgG1 Fc)) VH: DVQLVESGGGVVRPGESLRLSCAASGFTFSNFAMTWVRQAPGKGPEWVSLVSVTATTYYADSVKGRFTISRDNSKSTLYLQMNSLRAEDTAVYYCAKITWNNLFDYWGLGTLVTVSS VL: EIVLTQSPGTLSLSPGERATLSCRASQTVGSKLAWYQQKPGQAPRLLIYDSSSRASGIPDRFSGSGSGTDFTLTISSLQSEDSAVYYCQQHNDWPPYTFGGGTKVEIK | 0.00337 | 0.00215 | 0.00321 | 0.000348 | no binding (tested: Koff > 5 × 10^3 (legend)) | no binding (tested: Koff > 5 × 10^3 (legend)) | no binding (tested: Koff > 5 × 10^3 (legend)) |  |  |  |  |  |  | 
S213 (scFv, V domains shown, also called clone 213) VH: DVQLVESGGGVVRPGESLRLSCEASGFTFRNYYMTWVRQAPGEGLEWVSTISDTGDTAYYADSVKGRFTISRDNSKNSLYLQMNSLRADDTAIYYCAKSWIWWTFFDYWGLGTLVTVSS VL: ALTQPASVSANLGGTVEITCSGGNSNHYGWYQQKSPGSAPVTLIYADTNRPSNIPSRFSGSTSGSTTTLTITGVQAEDEAVYYCGGSSTGDGIFGAGTTLTVL |  | 0.00313 |  | 0.000685 | no binding (tested: Koff > 5 × 10^3 (legend)) |  |  | 0.0026 | 0.00482 | no binding (tested: Koff > 5 × 10^3 (legend)) |  |  |  | 
S214 (scFv, V domains shown) VH: DVQLVESEGGVVRPGESLRLSCEASGFTFRNSYMTWVRQAPGEGLEWVSTISDTGDTAYYADSVKGRFTISRDNSKNSLYLQMNSLRAEDTAIYYCAKSWIWWTFFDYWGLGTLVTVSS VL: ALTQPASVSANLGGTVEITCSGGNSNHYGWYQQKSPGSAPVTLIYADTNRPSNIPSRFSGSTSGSTSTLTITGVQAEDEAVYYCGGSSTGDGIFGAGTTLTVL |  | 0.00271 |  | 0.000677 | no binding (tested: Koff > 5 × 10^3 (legend)) |  |  | 0.00351 | 0.00453 | no binding (tested: Koff > 5 × 10^3 (legend)) |  |  |  | 
antibody 135 variant mut/mut (antibody, human IgG1, V domains shown, Human IgG1 with L234A/L235A/G237A/N297A; Labels are in the order VL/VH) VH: EVQLVESGGGVVQPGGSLRLSCAASGFSFSIYAVSWVRQAPGKGLEWVSTIGADDTYYADSVKGRFTISRDNSKNTLYLQMNSLRAEDTAVYYCAKDSTVGWSGDFFDYWGQGTLVTVSS VL: EIVLTQSPATLSVSPGERVTLSCRASQNVRSDIAWYQQKPGQAPRLLIYAASSRDTGIPARFSGSGSGTDFTLTISSLQSEDFGVYYCQQYYDWPPFTFGGGTKVEIK |  |  |  |  |  |  |  |  |  |  | 0.0175 | 0.192 | 0.733 | 0.127
